Data: article PMC8301015, “Atypical Bacilliredoxin AbxC Plays a Role in Responding to Oxidative Stress in Radiation-Resistant Bacterium Deinococcus radiodurans” (Antioxidants, 2021)

Biological target: the molecule itself
Test: non-reducing SDS-PAGE; purified AbxC 0.5 mg/mL in PBS, 15 min, without or with increasing concentrations of H2O2 (or oxidised with diamide); 12% gel, non-reducing; disulfide-linked dimer against monomer

B1: AbxC (atypical BrxC; DR_1832), C-terminal His x 6 tag (enzyme, Deinococcus radiodurans, UniProt Q9RTD3 1-211, looked up)
chain: MTQGQDQVLSPLTTPDEVDQFLKDYPLAAVFKAGTCHKTMQGFGVLETFLQRYELPVGFIRVVDWRPASNHVAELTGLTHHSPQFILFKDGQAQYEVNNWDITPEALGPVFEQQVPQRSGAAQVDAGDSVEPYRQLMQAYLAGQLSDWAFQDQYVTMFRDDASLRSQREFELLSRLFGDPDAYHGGLHQLGAPQDRGDLKARVQSVLDQLG
notes: AbxC (DR_1832), Deinococcus radiodurans R1; monomer 23.7 kDa; single cysteine Cys36; also called putative homolog of BrxC (YtxJ); source: E. coli BL21-CodonPlus (DE3)-RP, purified (Ni-NTA, Superdex 75HR)
- stoichiometry N: 2
